Test results: the nanobody polyreactivity screen of Harvey et al. (2022)

Assay: yeast display, Sf9 membrane polyspecificity reagent, FACS + sequencing; frameworks hold sequencing errors
Method in brief: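 Galactose-induced (36–48 hours) yeast carrying a synthetic nanobody display library were exposed to 10% biotinylated, detergent-solubilized Sf9 membrane reagent at 4 °C for 1 hour. FACS followed streptavidin microbead enrichment, using low and high (top ~1%) gates for expression (anti-HA) and reagent binding (streptavidin). Colony PCR, MiSeq 2 × 250 sequencing and CDR-length filtering followed. Labels for polyreactivity reflect the gate of origin.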

Row | Sequence | polyreactivity (PSR sort gate)
1 | QVQLVESGGGLVQAGGSLRLSCSDSGSTFPYHAMGWYRPAPGKERELVAAIDSSDGITYYADSVKGRFTISRDNAKNTVYLQMNRLKPEDTAVYYCAAEDYEAGYDFWGQGTQVTVSS | high polyreactivity
2 | QVQLVESGGGLVQAGGSLRLSCAASGRIFGAYAMGWYRQAPGKERELVAAIDIRGGNTYYADSVKGRFTISRDNAKNTVYLQMNSLKPEDTAVYYCAADTWYDAYNYWGQGTQVNVSS | low polyreactivity
3 | QVQLVESGGGLVQSGGSLRLSCAASGSTFDYNAMGWYRQPPGKERELVAAINSGASTYYADSVKGRFTISRDNAKNTVYLLMNSLKPEDTAVYYCAKDYLYIGDYWGQGTQVTVSS | low polyreactivity
4 | QVQLVESGGGLVQAGGSLRLSCAASGIIYYGYVMGWYRQAPGKERELVATITSSGGSKYYADSVKGRFTISRDNAKNTVYLQMNSLKPEDTAVYYCAADYYYGAWVRHDYWGQCTQVTVSS | low polyreactivity
5 | QVQLVESAGGLVQAGGSLRLSCAASGSTLYKYAMGWYRQAPGKETEMVATLTRTDSTNYADSVKGRFTISRDNAKNTVYIQMNSLKPEDTAVYYCAARRVYYNGYYVNVGSFYYWGQGTQVTVSS | low polyreactivity
6 | QVQLVESGGRLVQAGGSLRLSCAASGSIFGGNDMGWYRQAPGKERELVAAITSSGGSTYYADSVKGRFTISRDNAKNTVYLQMNSLKPEDTAVYYCNADYYGPYRDYGYWGQGTQVTVSS | low polyreactivity
7 | QVQLVESGGGLVQAGGSLRLSCAASGIIFYYYAMGWYRQATGKERELVAAITRSGGSTYYADSVKGRFTISRDNAKNTVYLQMNSLKPEDTAVYYCAAARLPYYVGRYYYWGQGTQVTVSS | high polyreactivity
8 | QVQLVESGGGLVQAGGSLRISCAASGRTFLSNAMGWYRQAPGKERELVAAISNGDNTYYADSVKGRFTISRDNAKNTVYLQMNSLKPEDTAVYYCAADQYWSWIYYPVVEYDYWGQGTQVTVSS | low polyreactivity
9 | QVQLVESGGGLVQAGGSLRLSCAASGRTFTTNAMGWYRQAPGKERELVAGISYSTGRTYYADSVKGRFTISRDNAKNTVYLQMNSLKPEDTAVYYCAAYTRGYRGYYYWGQGTQVTVSS | high polyreactivity
10 | QGQLVESGGGLVQAGGSLRLSCAASGFTFYYNAMGWYRQAPGQERELVAAISTRGGNTYYADSVKGRFTISRDNAKNTVYLQMNSLKPEDTAVYYCARKIRREGRYDYWGQGTQVTVSS | high polyreactivity
11 | QVQLVESGGGLVQAGGSLRLSCAASGRIFYVYAMGWYRPAPGKERELVAAITQSGGRTYYADSVKGRFTISRDNAKNTVYLQMNSLKPEDTAVYYCNADGDDLDWNYYLVQYDYWGQGTQVTVSS | low polyreactivity
12 | QVQLVESGGGLVQAGGSLRLSCAASGRIIPKYAMGWYRQAPGKERELVAAISSSGGSTYYADSVKGRFTISRDNAKNTVYLQINSLKPEDTAVYYCNVDKATRYRYPGFDYWGQGTQVTVSS | high polyreactivity
13 | QVQLVESGGGLVQAGCSLRLICAASGYIFVIYAMGWNRQAPGKERELVAAISSSGAGTYYADSVKGRFTISRDNAKNTVYLQMNSLKPEDTAVYYCAASESAVFDGYDYWGQGTQVTVSS | high polyreactivity
14 | QDQLVESGGGLVQAGGSLRLSCAASGSTFVSNAMVWYRQAPGKERELVAAISSSGGRTSYADSVKGRFTISRDNAKNTVYLQMNSLKPEDTAVYYCAARFKSVDYVQYYYWGQGTQVTVSS | low polyreactivity
15 | QVQLVESGGGLVQAGGSLSLSCAATGRLFSWYTMGWYRQAPGKERELVAAISWSGTSTYYADSVKGRFTISRDNAKNTVYLQMNSLKPEDTAVYYCNKVNPANIRRSYDYWGQGTQVTVSS | high polyreactivity
16 | QVQLVESGGGLVQAGGSLRLSCAASGLTFNYYDMGWYRQAPGKERELVAAISRSGTNTSYADSVKGRFTISRDNAKNTVYLQMNSLKPEDTAVYYCNAAGVYLAAGPYTANFNYNYWGQGTQVTVSS | low polyreactivity

Row | Sequence | polyreactivity (PSR sort gate)
17 | QVQLVESVGCLVQARGSLRLSSAASGLIFPKYAMGWYRPAHGKERELVAAISSSGGSTYYADSVMGRFTISRVNAKNTVYLQMNSLKPEDTAVYYCAAKRFTTVTGYGYWGQGTQVTVSS | high polyreactivity
18 | QGQLVESGGGLVQAGGSLRLSCAASGSIFYRNAMGWYRQAPGKERELVAAISYSGGSTYYADSVKGRFTISRDNAKNTVYLQMNSLKPEDTAVYYCAKDYPTPISDYSRYYGYGYWGQGTQVTVSS | low polyreactivity
19 | QVQLVESGGGLVQAGGILRLSCAASGSIFWYYARGWYRQARGKEREFVADITFSGGSTYYADSVNGRFTISRDNAKNTVYIQMNSLKPEDTAVYYCARDREPLTPVLGNYWGQGTQVTVSS | low polyreactivity
20 | QVQLVESGGGLVQAGGSLRLSCAASGLTFGGNAMGWYRQAPGKERELVAAISWSDDTTDYADSVKGRFTISRDNAKNTVYLQMNSLKPEDTAVYYCADRLPFEHVDYWGQGTQVTVSS | low polyreactivity
21 | QDQLVESGGGLVQAGGSLRLSCAASGFIVHRYVMGWYRQAPGKERELVAAISSGGSTNYADSVKGRFTISRDNAKNSVYLQMTSLKPEDTAVYYCAADGFYYRNWGRFRYYYWGQGTQVNVSS | low polyreactivity
22 | QVQLVESGGGLVQAGGSLRLSCAASGRTFRLNAMGWYRQAPGKERELVAGIRVRAGTTYYADSVKGRFTLSRDNAKNTVYLQMNSLKPEDTAVYYCAAESYSRSRKYDYWGQGTQVTVSS | high polyreactivity
23 | QVQLVESGGGLVQAGGSLRLSCAASGSTFKSYAMGWYRQAPGKERELVAAINWSGGSTYYADSVKGRFTISRDNAKNTVYLQMTSLKPEDTAVYYCNALYAVRSYDSWGQGTQVTVSS | high polyreactivity
24 | QVQLVESGVGLVQAGGSLRLSCADSGFTFFHYARGWYIQAPGKERELVAAIDYSAGSTYYADSVKGRFTISRDNAKNTVYLQMNSLKPEDTAVYYCAADARTSRGRRYYYWGQGTQVTVSS | low polyreactivity
25 | QVQLVESGGGLVQAGGSLRLSCAASGITFTYYVMGWYRQAPGKERELVAAITWRGGRTRYADSVKGRFTISRDNAKNTVYLQMNSLKPEDTAVYYCAADLHQRRYYYWGQGTQVTVSS | high polyreactivity
26 | QVQLVESGGGLVQAGGSLRLSCAASGRTFYSYARGWYRQAPGKEREFFAAISRSGGSTYYADSVKGRFTISRDYAKNTVYLQMNSLKPEDTAVYYCAARYRRDDYDYWGQGTQVTVSS | high polyreactivity
27 | QVQLVESGGGLVQAGGSLRLSCAASGNIFVFYVMGWYRQAPGKERELVASISSTGNTYYADSVKGRFTISRDNAKNTVYLQMNSLKPEDTAVYYCAADSHQNVSGWLRWPRMDYWGQGTQVTVSS | low polyreactivity
28 | QVQLVESGGGLVQAGGSLRLSCAASGLTFYTYAMGWYRQAPGKERELVAAISGRGSRTFYADSVKGRFTISRDNAKNTVYLQMNSLKPEDTAVYYCAARVWSSFTGAYDYWGQGTQVTVSS | high polyreactivity
29 | QVQLVESGGGLVQAGGSLRLSCAASGSTFRSYAMGWYRQAPGKEREFVAALSSSDDSSYYADSVKGRFTISRDNAKNTVYLQMNSLKPEDTAVYYCAARPWNDGYYVGRFHMDYWGQGTQVTVSS | low polyreactivity
30 | QVQLVESGGGLVQAGRSLRLSFADSGVIVTSNAMGWYRQAPGKEREFVADITSSDSTYYADSVKGRFTISRDNAKNTVYLQMNSLKPEDTAVYYCAARGTTVRAYGYGFGYWGQGTQVTVSS | low polyreactivity
31 | QVQLVESGGGLVQAGGSLRLSCAASGFIFPRYAMGWYRQAPGKERELVAGITSRGTGTYYADSVKGRFTISRDNAKNTVYLQMNSLKPEDTAVYYCARLSTKPLPYDYWGLGTQVTVSS | high polyreactivity
